Measured values reported in patent US20190330357A1 (Bayer, published 2019).

Legend:
[1] = biological target: T1, IL-3Rα, CD123 (interleukin 3 receptor subunit alpha) as expressed on CD123-positive human cancer cell lines … (human, UniProt P26951 20-378); test: flow cytometry on MOLM-13 cells, anti-kappa-FITC secondary antibody
T1 construct: Target of the flow cytometry on the human cell line MOLM-13 (CD123-positive); NCBI Gene ID 3563; also called IL3RA; IL3R-alpha
T1 sequence: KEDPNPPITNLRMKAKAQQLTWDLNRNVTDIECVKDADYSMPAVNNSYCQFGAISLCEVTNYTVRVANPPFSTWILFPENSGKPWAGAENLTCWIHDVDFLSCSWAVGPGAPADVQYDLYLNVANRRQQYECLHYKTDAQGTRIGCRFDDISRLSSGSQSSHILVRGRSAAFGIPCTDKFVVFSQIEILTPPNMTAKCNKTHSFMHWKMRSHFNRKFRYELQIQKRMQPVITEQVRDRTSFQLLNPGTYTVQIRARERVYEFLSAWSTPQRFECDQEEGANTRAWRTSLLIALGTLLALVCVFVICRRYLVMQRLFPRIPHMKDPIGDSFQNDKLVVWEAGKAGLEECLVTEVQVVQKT
Experimental: (§1) Binding of the anti-CD123 antibodies was examined by flow cytometry using human haematological cell line MOLM-13. To this end, the cells (5×10⁵ cells/well) were incubated in FACS buffer (PBS without Ca/Mg, 3% FCS, Biochrom) with 10 μg/ml primary antibody solution (start concentration) on ice for 30-45 min protected from light. A dose activity curve (1:5 dilution) was plotted. After the incubation, 200 μl of ice-cold FACS buffer were added using a pipette, and the cell suspension was centrifuged at 4° C. 400 g for 4 min. The cell pellet was washed with 300 μl of ice-cold FACS buffer and the pellet obtained was then resuspended in 100 μl FACS buffer and incubated again with secondary antibody (monoclonal anti-kappa light chains-FITC antibody, Sigma, No. SAB4700605) in a 1:10 dilution on ice for 30 min. The cells were then washed with ice-cold FACS buffer and adjusted to a cell concentration of 0.5×10⁶ cell/m1 prior to flow cytometry using a Guava flow cytometer (Millipore). Propidium iodide (final concentration 1 μg/ml) was used for live staining. The results were shown as EC₅₀ values determined based on the dose response curve and efficacy compared to maximal binding.

[2] = biological target: T2, TPP-5521, recombinant IL3Ra aa20-305 (extracellular domain of IL3Ra, R&D Systems) (murine (printed under Origin in Table …, UniProt P26951 20-305)); test: SPR (Biacore T200), antibody captured by anti-human Fc, IL3Ra ECD as analyte, 1:1 Langmuir fit, 25 °C
T2 construct: Bought antigen; also called soluble IL3Ralpha; IL3Ra protein
T2 sequence: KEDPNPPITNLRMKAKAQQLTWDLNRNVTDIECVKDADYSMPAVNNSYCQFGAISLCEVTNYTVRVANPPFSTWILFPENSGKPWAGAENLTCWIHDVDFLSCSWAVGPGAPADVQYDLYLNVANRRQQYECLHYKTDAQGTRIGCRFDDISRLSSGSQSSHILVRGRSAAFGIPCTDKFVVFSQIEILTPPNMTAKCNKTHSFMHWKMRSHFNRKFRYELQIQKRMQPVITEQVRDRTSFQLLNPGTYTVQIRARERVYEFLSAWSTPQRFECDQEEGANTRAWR
Experimental: Surface plasmon resonance experiments for quantitative binding analysis were carried out using a Biacore T200 instrument (GE Healthcare Biacore, Inc.). Here the antibodies to be examined were fixed with the aid of an anti-human Fc antibody (“Human Antibody Capture Kit”, BR-1008-39, GE Healthcare Biacore, Inc.) amine-coupled to the sensor chip surface Amine coupling was performed according to the manufacturer's instructions using 1-ethyl-3-(3-dimethylaminopropyl)carbodiimide hydrochloride (EDC), N-hydroxysuccinimide (NHS) and ethanolamine HCl pH 8.5 (“Amine Coupling Kit” BR-1000-50, GE Healthcare Biacore, Inc.). For the analyses, Series S sensor chips CMS (GE Healthcare Biacore, Inc.) were used with the mobile buffer HBS-EP+ (10 mM HEPES pH 7.4, 150 mM NaCl, 3 mM EDTA, 0.05% Surfactant P20). All experimental steps were carried out at 25° C. After fixation of the anti-CD123 antibodies to be examined, injections of the extracellular domain of IL3Ra (analyte, R&D Systems) at concentrations of 100 nM were carried out, and after each antigen injection the sensor surface was regenerated with glycine HCl pH 2.0. Prior to another analyte injection, antibodies were in each case fixed as above, under identical conditions. For all measurements, an upstream flow cell only containing immobilized amine-coupled anti-human Fc antibody was used as reference cell. Evaluation of the sensorgrams obtained was, after double referencing (subtraction of the reference flow cell signal and a buffer injection), carried out by a global fit based on a 1:1 Langmuir binding model with the aid of the Biacore T200 evaluation software (GE Healthcare Biacore, Inc.).

[3] = biological target: T1, IL-3Rα, CD123 (interleukin 3 receptor …); test: flow cytometry on MOLM-13 cells
Experimental: as §1

B1: TPP-5969 (antibody, human IgG1, kappa, V domains shown)
VH: QVQLVQSGAEVKKPGSSVKVSCKASGGTFSDYYMKWVRQAPGQGLEWMGDIIPSNGATFYAQKFQGRVTITADESTSTAYMELSSLRSEDTAVYYCARSHLLRASWFAYWGQGTLVTVSS
VL: DIVMTQSPDSLAVSLGERATINCESSQSLLNSGNQKNYLTWYQQKPGQPPKLLIYWASTRESGVPDRFSGSGSGTDFTLTISSLQAEDVAVYYCQNDYSYPYTFGQGTKLEIKR
notes: Humanized version of murine 7G3, human IgG1 kappa; also called HU7G3-4-hIgG1Kappa
EC50 [1]: 5.3 nM | Efficacy [%] (compared to maximal binding) [1]: 34%

B2: TPP-8695 (antibody, human IgG1, kappa, V domains shown)
VH: QVQLVQSGAEVKKPGSSVKVSCKASGGTFSDYYMKWVRQAPGQGLEWMGDIIPSNGATFYNQKFKGQVTITADESTSTAYMELSSLRSEDTAVYYCARSHLLRASWFAYWGQGTLVTVSS
VL: DIVMTQSPDSLAVSLGERATINCESSQSLLNSGNQKNYLTWYQQKPGQPPKLLIYWASTRESGVPDRFSGSGSGTDFTLTISSLQAEDVAVYYCQNDYSYPYTFGQGTKLEIKR
notes: also called Variant4-hIgG1kappa
EC50 [1]: 1.12 nM | Efficacy [%] (compared to maximal binding) [1]: 36%

B3: TPP-8987 (antibody, human IgG1, kappa, V domains shown)
VH: QVQLVQSGAEVKKPGSSVKVSCKASGGTFSDYYMKWVRQAPGQGLEWMGDIIPSNGATFYNQKFKGQVTITADESTSTAYMELSSLRSEDTAVYYCARSHLLRASWFAYWGQGTLVTVSS
VL: DIVMTQSPDSLAVSLGERATINCESSQSVLNSGNQKNYLTWYQQKPGQPPKLLIYWASTRESGVPDRFSGSGSGTDFTLTISSLQAEDVAVYYCQNDYSYPYTFGQGTKLEIKR
notes: Humanized and germlined variant of 7G3, human IgG1 kappa
EC50 [1]: 3.2 nM | Efficacy [%] (compared to maximal binding) [1]: 100% | Kd [2]: 1.24 nM

B4: TPP-9476 (antibody, human IgG1, kappa, V domains shown)
VH: QVQLVQSGAEVKKPGSSVKVSCKASGGTFSDYYMKWVRQAPGQGLEWMGDIIPSNGATFYNQKFKGRVTITADESTSTAYMELSSLRSEDTAVYYCARSHLLRASWFAYWGQGTLVTVSS
VL: DIVMTQSPDSLAVSLGERATINCESSQSVLNSGNQKNYLTWYQQKPGQPPKLLIYWASTRESGVPDRFSGSGSGTDFTLTISSLQAEDVAVYYCQNDYSYPYTFGQGTKLEIKR
notes: as for B3
EC50 [1]: 2.8 nM | Efficacy [%] (compared to maximal binding) [1]: 100% | Kd [2]: 7.2 nM

B5: TPP-6013 (antibody, human IgG1, kappa, V domains shown)
VH: QVQLQESGPGLVKPSQSLSLTCSVTDYSITSGYYWNWIRQFPGNKLEWMGYISYDGSNNYNPSLKNRISITRDTSKNQFFLKLSSVTTEDTATYYCSRGEGFYFDSWGQGTTLTVSS
VL: DIMMSQSPSSLAVSVGEKFTMTCKSSQSLFFGSTQKNYLAWYQQKPGQSPKLLIYWASTRESGVPDRFTGSGSGTDFTLAISSVMPEDLAVYYCQQYYNYPWTFGGGTKLEIKR
notes: Chimeric antibody: murine 12F1 variable domains with human IgG1 kappa constant regions; also called antiCD123-12F1-hIgG1Kappa; chimeric variant of 12F1
EC50 [1]: 2 nM | Efficacy [%] (compared to maximal binding) [1]: 100% | Kd [2]: 0.8 nM

B6: TPP-8988 (antibody, human IgG1, kappa, V domains shown)
VH: EVQLLESGGGLVQPGGSLRLSCAVSDYSITSGYYWNWIRQAPGKKLEWMGYISYDGSNNYNPSLKNGRITISRDTSKNTFYLQMNSLRAEDTAVYYCARGEGFYFDSWGQGTLVTVSS
VL: EIVLTQSPGTLSLSPGERATLSCKSSQSLFFGSTQKNYLAWYQQKPGQAPRLLIYWASTRESGIPDRFSGSGSGTDFTLTISRLEPEDFAVYYCQQYYNYPWTFGQGTKLEIKR
notes: Humanized variant of 12F1 (IGKV3-20 / IGHV3-66 frameworks), human IgG1 kappa
EC50 [1]: 1.9 nM | Efficacy [%] (compared to maximal binding) [1]: 100% | Kd [2]: 0.33 nM

B7: TPP-9075 (antibody, human IgG1, kappa, V domains shown)
VH: EVQLLESGGGLVQPGGSLRLSCAVSDYSITSGYYSNWIRQAPGKKLEWMGYISYDGSNNYNPSLKNGRITISRDTSKNTFYLQMNSLRAEDTAVYYCARGEGFYFDSWGQGTLVTVSS
VL: EIVLTQSPGTLSLSPGERATLSCKSSQSLFFGSTQKNYLAWYQQKPGQAPRLLIYWASTRESGIPDRFSGSGSGTDFTLTISRLEPEDFAVYYCQQYYNYPWTFGQGTKLEIKR
EC50 [1]: 5.37 nM | Efficacy [%] (compared to maximal binding) [1]: 100%

B8: TPP-9078 (antibody, human IgG1, kappa, V domains shown)
VH: EVQLLESGGGLVQPGGSLRLSCAVSDYSITSGYYWNWIRQAPGKKLEWVGYISYDGSNNYNPSLKNGRITISRDTSKNTFYLQMNSLRAEDTAVYYCARGEGFYFDSWGQGTLVTVSS
VL: EIVLTQSPGTLSLSPGERATLSCKSSQSLFFGSTQKNYLAWYQQKPGQAPRLLIYWASTRESGIPDRFSGSGSGTDFTLTISRLEPEDFAVYYCQQYYNYPWTFGQGTKLEIKR
binding result [3]: no binding (tested: 10 µg/ml (start concentration))

B9: TPP-9104 (antibody, human IgG1, kappa, V domains shown)
VH: EVQLLESGGGLVQPGGSLRLSCAVSDYSITSNYYWNWIRQAPGKKLEWMGYISYDGSNNYNPSLKNGRITISRDTSKNTFYLQMNSLRAEDTAVYYCARGEGFYFDSWGQGTLVTVSS
VL: EIVLTQSPGTLSLSPGERATLSCKSSQSLFFGSTQKNYLAWYQQKPGQAPRLLIYWASTRESGIPDRFSGSGSGTDFTLTISRLEPEDFAVYYCQQYYNYPWTFGQGTKLEIKR
EC50 [1]: 25.3 nM | Efficacy [%] (compared to maximal binding) [1]: 83%

B10: TPP-9130 (antibody, human IgG1, kappa, V domains shown)
VH: EVQLLESGGGLVQPGGSLRLSCAVSDYSITSGYYWNWIRQAPGKKLEWMGYISYDGSNNYNPSLKNGRITISRDTSKNTFYLQMNSLRAEDTAVYYCARGEGFYFDSWGQGTLVTVSS
VL: EIVLTQSPGTLSLSPGERATLSCKSSQSLFFGSTQKNYLAWYQQKPGQAPRLLIYGASSRATGIPDRFSGSGSGTDFTLTISRLEPEDFAVYYCQQYYNYPWTFGQGTKLEIKR
EC50 [1]: 3.01 nM | Efficacy [%] (compared to maximal binding) [1]: 100%

B11: TPP-8617 (antibody, human IgG1, kappa, V domains shown)
VH: EVQLVQSGAEVKKPGESLKISCKGSDYSITSGYYWNWVRQMPGKGLEWMGYISYDGSNNYNPSLKNGQVTISADKSISTAYLQWSSLKASDTAMYYCSRGEGFYFDSWGQGTLVTVSS
VL: DIMMSQSPSSLAVSVGEKFTMTCKSSQSLFFGSTQKNYLAWYQQKPGQSPKLLIYWASTRESGVPDRFTGSGSGTDFTLAISSVMPEDLAVYYCQQYYNYPWTFGGGTKLEIKR
notes: Humanized 12F1 graft on IGKV4-1 / IGHV5-51; also called Hum-TPP6013-17
EC50 [1]: 1.4 nM | Efficacy [%] (compared to maximal binding) [1]: 100%

B12: TPP-9129 (antibody, human IgG1, kappa, V domains shown)
VH: EVQLLESGGGLVQPGGSLRLSCAVSDYSITSGYYWNWIRQAPGKKLEWMGYISYDGSNNYNPSLKNGRITISRDTSKNTFYLQMNSLRAEDTAVYYCARGEGFYFDSWGQGTLVTVSS
VL: EIVLTQSPGTLSLSPGERATLSCRASQSVSSSYLAWYQQKPGQAPRLLIYWASTRESGIPDRFSGSGSGTDFTLTISRLEPEDFAVYYCQQYYNYPWTFGQGTKLEIKR
binding result [3]: no binding (tested: 10 µg/ml (start concentration))
